# Experimental data as given in patent publication US12043658B2, “Conjugate comprising an active MMP-9-binding peptide” (Daiichi Sankyo Company, Limited, priority 2017, dated 2024).
# Assays:
# [1] = target: T1, active hMMP-9(cat)_Y393A (Homo sapiens, UniProt P14780, Y393A); test: Inhibition of human MMP-9 mutant Y393A; assay type: biochemical
# T1 construct: of the enzyme active domain (Phe107-Pro449) were constructed; His tag (before the propeptide) (N, cleaved yes); made in house; host or cells: FreeStyle 293F
# Description: (§1) The substrate peptide MOCAc-KPLGL-A2pr(Dnp)-AR-NH2 (SEQ ID NO: 30 (FIG. 46)) (PEPTIDE […], INC.; 3226-v) was dissolved in water to 1 mM, then diluted with an assay buffer (50 mM Tris-HCl, 200 mM NaCl, 2 mM CaCl2, pH7.5) and used at the final concentration of 10 μM. 50 μl each of the active hMMP-9(cat) diluted with the assay buffer or the active hMMP-9(cat)_XnnnY and the active MMP-9-binding peptide or sc-311438 (Santa Cruz Biotechnology, Inc.) were mixed, and reacted at 37° C. for 1 hour. Then, 100 μl of the substrate diluted with the assay buffer was added, and fluorescence signals (excitation 328 nm/emission 393 nm) were measured with Enspire (PerkinElmer, Inc.). The final concentrations of the active hMMP-9(cat) and the active hMMP-9(cat)_XnnnY were at 1 nM, and the final concentrations of the active MMP-9-binding peptide and sc-311438 were at 0.5 to 330 nM. For reactions and measurements, a ProteoSave™ SS96F black plate (Sumitomo Bakelite Co., Ltd.) was used.
# (§2) The 50% inhibitory concentration (IC50) of each binding peptide was calculated using GraphPad Prism (version 5.0; GraphPad Software), by calculating the substrate peptide degradation rate of the active MMP-9-binding peptide at each concentration, and taking the degradation rate at an inhibitor concentration of 0 nM as 100% (FIGS. 54(A) and 54(B)). […]
# [2] = target: T2, active hMMP-9(cat)_Q199G (Homo sapiens, UniProt P14780, Q199G); test: Inhibition of human MMP-9 mutant Q199G; assay type: biochemical
# T2 construct: of the enzyme active domain (Phe107-Pro449) were constructed; His tag (before the propeptide) (N, cleaved yes); made in house; host or cells: FreeStyle 293F
# Description: as §1, §2
# [3] = target: T3, active hMMP-9(cat)_L187A (Homo sapiens, UniProt P14780, L187A); test: Inhibition of human MMP-9 mutant L187A; assay type: biochemical
# T3 construct: of the enzyme active domain (Phe107-Pro449) were constructed; His tag (before the propeptide) (N, cleaved yes); made in house; host or cells: FreeStyle 293F
# Description: as §1, §2
# [4] = target: T4, active hMMP-9(cat)_M422I (Homo sapiens, UniProt P14780, M422I); test: Inhibition of human MMP-9 mutant M422I; assay type: biochemical
# T4 construct: of the enzyme active domain (Phe107-Pro449) were constructed; His tag (before the propeptide) (N, cleaved yes); made in house; host or cells: FreeStyle 293F
# Description: as §1, §2
# [5] = target: T5, active hMMP-9(cat)_L397A (Homo sapiens, UniProt P14780, L397A); test: Inhibition of human MMP-9 mutant L397A; assay type: biochemical
# T5 construct: of the enzyme active domain (Phe107-Pro449) were constructed; His tag (before the propeptide) (N, cleaved yes); made in house; host or cells: FreeStyle 293F
# Description: as §1, §2
# [6] = target: T6, active hMMP-9(cat)_F110A (Homo sapiens, UniProt P14780, F110A); test: Inhibition of human MMP-9 mutant F110A; assay type: biochemical
# T6 construct: of the enzyme active domain (Phe107-Pro449) were constructed; His tag (before the propeptide) (N, cleaved yes); made in house; host or cells: FreeStyle 293F
# Description: as §1, §2
# [7] = target: T7, human MMP-9 enzyme active domain E402Q mutant (Homo sapiens, UniProt P14780, E402Q); test: Size exclusion chromatography binding to hMMP-9(cat)_E402Q_His6; conditions: 25 μM enzyme, 75 μM inhibitor
# T7 construct: an enzyme active domain E402Q mutant (Phe107-Pro449, E402Q) and a His tag; made in house; host or cells: FreeStyle 293F
# Description: (§3) With M91005 and M91011 prepared in (1-2), active hMMP-9(cat)_His6 prepared in (2-1-4), and hMMP-9(cat)_E402Q_His6 prepared in (11-3), the binding activity was evaluated by size exclusion chromatography. 25 μM active hMMP-9(cat)_His6 or hMMP-9(cat)_E402Q_His6 and 75 μM active MMP-9-binding peptide or hTIMP-1 (in-house preparation) were mixed, and reacted at 4° C. for 1 hour. After the reaction, 10 μl of the reaction solution was analyzed by size exclusion chromatography. The chromatographic conditions were as follows.
# (§4) Detection: Absorbance (280 nm)
# (§5) When only active hMMP-9(cat)_His6 was analyzed, the peak of active hMMP-9(cat)_His6 was detected at a retention time of 7.0 minutes (FIG. 53(A)). When a mixture reaction solution of active hMMP-9(cat)_His6 and hTIMP-1 or active MMP-9-binding peptides M91005 or M91011 was analyzed, the retention time of the peak of active hMMP-9(cat)_His6 was shifted to the high molecular weight side (FIG. 53(A)). […] When only human MMP-9(cat)_E402Q_His6 was analyzed, the peak of hMMP-9(cat)_E402Q_His6 was detected at a retention time of 7.1 minutes (FIG. 53(B)). When a mixed reaction solution of human MMP-9(cat)_E402Q_His6 and hTIMP-1 was analyzed, the retention time of the peak of hMMP-9(cat)_E402Q_His6 was shifted to the high molecular weight side (FIG. 53(B)). […] In contrast, when a mixture reaction solution of hMMP-9(cat)_E402Q_His6 and the active MMP-9-binding peptide M91005 or M91011 was analyzed, the retention time of the peak of the hMMP-9(cat)_E402Q_His6 was not changed (FIG. 53(B)). It should be noted that when only hTIMP-1 or the active MMP-9-binding peptides M91005, M91011 was analyzed, the peak of hTIMP-1 was detected at a retention time of 7.3 minutes, the peak of the active MMP-9-binding peptide M91005 was detected at a retention time of 8.2 minutes, and the peak of the active MMP-9-binding peptide M91011 was detected at a retention time of 8.1 minutes (FIG. 53(C)).
# [8] = target: T8, active hMMP-9(cat)_Y179A (Homo sapiens, UniProt P14780, Y179A); test: Inhibition of human MMP-9 mutant Y179A; assay type: biochemical
# T8 construct: of the enzyme active domain (Phe107-Pro449) were constructed; His tag (before the propeptide) (N, cleaved yes); made in house; host or cells: FreeStyle 293F
# Description: as §1, §2
# [9] = target: active human MMP-9 enzyme active domain (Homo sapiens, UniProt P14780); test: Size exclusion chromatography binding to active hMMP-9(cat)_His6; set-up: an enzyme active domain (Phe107-Pro449) and a His tag; made in house; host or cells: FreeStyle 293F; conditions: 25 μM enzyme, 75 μM inhibitor
# Description: as §3, §4, §5
# [10] = target: T9, active hMMP-9(cat)_F192A (Homo sapiens, UniProt P14780, F192A); test: Inhibition of human MMP-9 mutant F192A; assay type: biochemical
# T9 construct: of the enzyme active domain (Phe107-Pro449) were constructed; His tag (before the propeptide) (N, cleaved yes); made in house; host or cells: FreeStyle 293F
# Description: as §1, §2
# [11] = target: T10, wild-type active hMMP-9(cat) (Homo sapiens, UniProt P14780); test: Inhibition of wild-type active hMMP-9(cat), substrate peptide; assay type: biochemical; conditions: wild-type active hMMP-9(cat) 1 nM, substrate peptide 10 μM
# T10 construct: and an enzyme active domain (Phe107-Pro449) was constructed; His tag (before the propeptide) (N, cleaved yes); made in house; host or cells: FreeStyle 293F
# Description: as §1, §2
# [12] = target: T11, active hMMP-9(cat)_Y420A (Homo sapiens, UniProt P14780, Y420A); test: Inhibition of human MMP-9 mutant Y420A; assay type: biochemical
# T11 construct: of the enzyme active domain (Phe107-Pro449) were constructed; His tag (before the propeptide) (N, cleaved yes); made in house; host or cells: FreeStyle 293F
# Description: as §1, §2
# [13] = target: T12, active hMMP-9(cat)_Y423A (Homo sapiens, UniProt P14780, Y423A); test: Inhibition of human MMP-9 mutant Y423A; assay type: biochemical
# T12 construct: of the enzyme active domain (Phe107-Pro449) were constructed; His tag (ahead of the propeptide in the precursor) (N, cleaved yes); made in house; host or cells: FreeStyle 293F
# Description: as §1, §2
# [14] = target: T13, active hMMP-9(cat)_V398A (Homo sapiens, UniProt P14780, V398A); test: Inhibition of human MMP-9 mutant V398A; assay type: biochemical
# T13 construct: of the enzyme active domain (Phe107-Pro449) were constructed; His tag (before the propeptide) (N, cleaved yes); made in house; host or cells: FreeStyle 293F
# Description: as §1, §2
# [15] = target: T14, active hMMP-9(cat)_R424T (Homo sapiens, UniProt P14780, R424T); test: Inhibition of human MMP-9 mutant R424T; assay type: biochemical
# T14 construct: of the enzyme active domain (Phe107-Pro449) were constructed; His tag (ahead of the propeptide in the precursor) (N, cleaved yes); made in house; host or cells: FreeStyle 293F
# Description: as §1, §2
# [16] = target: T15, active hMMP-9(cat)_P193A (Homo sapiens, UniProt P14780, P193A); test: Inhibition of human MMP-9 mutant P193A; assay type: biochemical
# T15 construct: of the enzyme active domain (Phe107-Pro449) were constructed; His tag (before the propeptide) (N, cleaved yes); made in house; host or cells: FreeStyle 293F
# Description: as §1, §2
# [17] = target: T16, active hMMP-9(cat)_D185A (Homo sapiens, UniProt P14780, D185A); test: Inhibition of human MMP-9 mutant D185A; assay type: biochemical
# T16 construct: of the enzyme active domain (Phe107-Pro449) were constructed; His tag (before the propeptide) (N, cleaved yes); made in house; host or cells: FreeStyle 293F
# Description: as §1, §2
# T10 sequence (P14780 107-449): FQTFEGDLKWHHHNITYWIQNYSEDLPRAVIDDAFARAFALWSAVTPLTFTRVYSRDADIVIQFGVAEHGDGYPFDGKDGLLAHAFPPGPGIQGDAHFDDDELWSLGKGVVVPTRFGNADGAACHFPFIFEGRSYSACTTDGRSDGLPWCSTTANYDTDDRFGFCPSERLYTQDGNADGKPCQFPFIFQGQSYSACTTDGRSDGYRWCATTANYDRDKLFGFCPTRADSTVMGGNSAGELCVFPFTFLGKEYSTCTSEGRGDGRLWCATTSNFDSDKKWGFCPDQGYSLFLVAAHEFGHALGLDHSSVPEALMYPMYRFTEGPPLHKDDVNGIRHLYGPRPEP
# Sequence of active human MMP-9 enzyme active domain (P14780 107-449): as above
# T4 sequence (P14780 107-449 M422I): as the sequence (P14780 107-449) above, with M316I counted along it
# T5 sequence (P14780 107-449 L397A): as the sequence (P14780 107-449) above, with L291A counted along it
# T12 sequence (P14780 107-449 Y423A): as the sequence (P14780 107-449) above, with Y317A counted along it
# T1 sequence (P14780 107-449 Y393A): as the sequence (P14780 107-449) above, with Y287A counted along it
# T7 sequence (P14780 107-449 E402Q): as the sequence (P14780 107-449) above, with E296Q counted along it
# T8 sequence (P14780 107-449 Y179A): as the sequence (P14780 107-449) above, with Y73A counted along it
# T9 sequence (P14780 107-449 F192A): as the sequence (P14780 107-449) above, with F86A counted along it
# T13 sequence (P14780 107-449 V398A): as the sequence (P14780 107-449) above, with V292A counted along it
# T11 sequence (P14780 107-449 Y420A): as the sequence (P14780 107-449) above, with Y314A counted along it
# T15 sequence (P14780 107-449 P193A): as the sequence (P14780 107-449) above, with P87A counted along it
# T14 sequence (P14780 107-449 R424T): as the sequence (P14780 107-449) above, with R318T counted along it
# T3 sequence (P14780 107-449 L187A): as the sequence (P14780 107-449) above, with L81A counted along it
# T2 sequence (P14780 107-449 Q199G): as the sequence (P14780 107-449) above, with Q93G counted along it
# T16 sequence (P14780 107-449 D185A): as the sequence (P14780 107-449) above, with D79A counted along it
# T6 sequence (P14780 107-449 F110A): as the sequence (P14780 107-449) above, with F4A counted along it
molecule,measurement,setting,value
"M91005: SPINK2 mutant active MMP-9-binding peptide, SEQ ID NO: 5 (FIG. 19) (protein, binder) DPQFGLFSKYRTPNCRKRGGPSCQMSYNPVCGSDMSTYANECTLCMKIREGGHNIKIIRNGPC",IC50 increase compared to wild type,[1],2.7 times
same,IC50 increase compared to wild type,[2],2.3 times
same,IC50 increase compared to wild type,[3],6.7 times
same,IC50 increase compared to wild type,[4],2.6 times
same,IC50 increase compared to wild type,[5],2.2 times
same,IC50 increase compared to wild type,[6],4.0 times
same,binding to human MMP-9 enzyme active domain E402Q mutant (peak shift),[7],do not bind to human MMP-9 enzyme active domain E402Q mutant
same,IC50 increase compared to wild type,[8],3.2 times
same,binding to active human MMP-9 enzyme active domain (peak shift),[9],bind to the active human MMP-9 enzyme active domain
same,IC50 increase compared to wild type,[10],> 57.8 times
same,IC50,[11],17 ± 7 nM
same,IC50 increase compared to wild type,[12],3.1 times
same,IC50 increase compared to wild type,[13],13.2 times
same,IC50 increase compared to wild type,[14],2.2 times
"M91011: SPINK2 mutant active MMP-9-binding peptide, SEQ ID NO: 7 (FIG. 21) (protein, binder) DPQFGLFSKYRTPNCMMYKYAQCSHKSQPVCGSDMSTYANECTLCMKIREGGHNIKIIRNGPC",IC50 increase compared to wild type,[1],> 57.6 times
same,IC50 increase compared to wild type,[15],2.7 times
same,IC50 increase compared to wild type,[4],2.6 times
same,IC50 increase compared to wild type,[16],6.5 times
same,IC50 increase compared to wild type,[5],3.5 times
same,binding to human MMP-9 enzyme active domain E402Q mutant (peak shift),[7],do not bind to human MMP-9 enzyme active domain E402Q mutant
same,IC50 increase compared to wild type,[8],4.9 times
same,IC50 increase compared to wild type,[17],19.0 times
same,binding to active human MMP-9 enzyme active domain (peak shift),[9],bind to the active human MMP-9 enzyme active domain
same,IC50 increase compared to wild type,[10],5.0 times
same,IC50,[11],17 ± 5 nM
same,IC50 increase compared to wild type,[13],> 20.0 times
same,IC50 increase compared to wild type,[14],4.8 times
